Measurements: patent US20170152308A1 (Biogen, published 2017)
Read-outs that look alike come from different tables or passages of the source.

B1: NI-205.51C1 (antibody, human IgG1, V domains shown)
VH: EVQLVESGGGLVQPGGSLRISCTTSGFIFSDYWMHWVRQAPGKGLTWVSRINLDGSDTIYADSVKGRFTISRDNDKNTLYLQMNSLRVEDTAIYYCARSRKSVWGQGTMVTVSS
VL: QSALTQPASVSGSPGQSITISCTGSNTDVGAYDYVSWSQQLPGKAPKFVIFDVDVRPSGISDRFSGSKSGNTASLTISGLQAEDEADYYCSSYTKSGTLVFGGGTKVTVV
notes: Human-derived
B2: NI-205.21G1 (antibody, human IgG1, V domains shown)
VH: QVQLVESGGGVVQPGMSLRLSCAASGFSFSSHGMHWVRQTPGKGLEWLAVISYDASNKSYADSVKGRFTISRDNSKKTLYLQMDSLRVEDTALYYCANAFSSSASGGYWGQGTLVTVSS
VL: DVVMTQSPLSLPVTLGQPASISCRSSQSLVHSDGVTYLNWFQQRPGQSPRRLIYKVSNRDSGVPDRFSGSGSGTDFTLEISRVEAEDVGIYYCMQGTHWPPWTFGQGTKVEIK
notes: Human-derived; also called NI-21G1
B3: NI-205.21G2 (antibody, human IgG1, V domains shown)
VH: QVQLVQSGAEVKKPGASVKVSCKTSGYSFTSYTLHWVRQAPGHRPEWMGWINAAFINTKYSQKFQGRITLTRDTSANIAYLELRSLTTEDTAVYYCARRASGSNGLDVWGQGTTVTVSS
VL: DIQMTQSPSSLSASVGDRITITCQASRDITNYLNWYQQKPGKAPKLLIYDASYLETGVPSTFSGSGSGTHFTLTISSLQPDDFATYYCQQYDSVPLTFGGGTKVEIK
notes: Human-derived
B4: NI-205.44B2 (antibody, human IgG1, V domains shown)
VH: QVQLQESGPGVVKPSQTLSLTCTVSGVSVGSGDYYWSWIRHHPGKGLEWIGYISFFGSSNYNPSLKGRVSMSVDTSNNQFSLNLKSVTAADTAVYFCATGNAYSFWGQGTMVTVSS
VL: QSALTQPASVSGSPGQSITISCTGTSSDIGTHNLVSWYQQHPGKAPKLIIYEIFERPSGISSRFTGSKSGNTASLTISGLQAEDEADYFCCAYSVTVIFGGGTKLTVL
notes: Human-derived; also called NI205.44B22
B5: NI-205.3F10 (antibody, human IgG1, V domains shown)
VH: EVQLLESGGDLVQPGGSLRLSCAASGFTFSSQAMSWVRQAPGKGLEWVSALSRTGDYTWYADSVRGRFTVSRDDSKNIFYLEMNSLRAEDTAVYYCAKNYYSSFGYNWAAFHIWGQGTMVTVSS
VL: EIVLTQSPGTLSLSPGERATLSCRASQDVNNNYLAWYQQKPGQAPRLLIYGASRRATGVPDRFSGRGSGTDFTLTINRLEPEDFAMYFCQQYGGSPPYTFGQGTKLEIK
notes: Human-derived

What was measured:
[1] = biological target: T1, recombinant full-length His-tagged human TDP-43 (2-414) (human, UniProt Q13148 2-414); experiment: direct ELISA, coated antigen
T1 construct: Amino terminal His tag, made in E. coli, purified in 8 M urea; also called full length TDP-43; full-length TDP-43
Description: (§1) The half maximal effective concentration (EC₅₀) of the human-derived TDP-43-specific antibodies for human TDP-43 and their target target-specificity was determined substantially as described in Example 2 above. Briefly, 96 well microplates (Corning) were coated with recombinant full length TDP-43 (Biogen Idec, USA), Escherichia coli extract and BSA (Sigma, Buchs, Switzerland), diluted to a concentration of 5 μg/ml in carbonate ELISA coating buffer (pH 9.6) overnight at 4° C. […] Non-specific binding sites were blocked for 1 hr. at room temperature with PBS containing 2% BSA (Sigma, Buchs, Switzerland). Human TDP-43-specific antibodies were diluted to the indicated concentrations and incubated 1 hr. at room temperature. Binding was determined using a donkey anti-human IgGγ-specific secondary antibody conjugated with HRP (Jackson ImmunoResearch, USA), followed by measurement of HRP activity in a standard colorimetric assay. EC₅₀ values were estimated by a non-linear regression using GraphPad Prism software (San Diego, USA).

[2] = biological target: T2, 6xHis-SUMO-TDP-43 (1-414), properly folded full length (human, UniProt Q13148 1-414); experiment: capture ELISA, antigen held by anti-6xHis antibody
T2 construct: Purified with KSCN and arginine, monomeric; captured on the plate by an anti-6xHis antibody; also called folded full-length TDP-43; 6xHis/SUMO tagged full length TDP-43; not shown: N-terminal 6xHis and SUMO tags from a modified pET19-b vector
Description: (§2) Non-specific binding sites were blocked for 1 hr at RT with PBS containing 1% BSA (Sigma) and 0.05% Tween-20 (Fisher Scientific). 6×His-SUMO-TDP43 proteins at a concentration of 1.7 μM were allowed to bind to antibody-coated plates for 1 hr at RT in PBS buffer containing 1% BSA, 300 mM arginine and 0.1% PEG 5000, pH 7.5. Plates were incubated for 1 hr at RT with human antibodies of present invention, titrated in a three-fold dilution series, followed by HRP conjugated anti-human IgG Fc γ (Jackson ImmunoResearch) in PBST containing 1% BSA. HRP activity was measured in a standard colorimetric assay. EC₅₀ values were calculated using a four-parameter logistic curve fit on Softmax pro software (Molecular Devices).
(§3) We measured the binding affinity of the human-derived TDP-43 specific antibodies provided herein to properly folded 6×His/SUMO tagged TDP-43 using a capture ELISA in which native TDP-43 was immobilized without direct adsorption on the surface of the ELISA plate. This was achieved by immobilizing an anti 6×His antibody which then captured native TDP-43. […] After this immobilization step, binding by human antibodies was tested in regular buffers without interference of TDP-43 aggregation.

[3] = biological target: T3, 6xHis-SUMO-TDP-43 (220-414) (human, UniProt Q13148 220-414); experiment: capture ELISA, antigen held by anti-6xHis antibody
T3 construct: Captured on the plate by an anti-6xHis antibody; also called 6xHis/SUMO tagged truncated TDP-43; not shown: N-terminal 6xHis and SUMO tags from a modified pET19-b vector
Description: as §2, §3

[4] = biological target: T1, recombinant full-length His-tagged …; experiment: direct ELISA, coated antigen; remark: listed apart in the source
Description: as §1

[5] = biological target: T4, His-huTDP-43 domain IV (amino acid residues 258-414) (human, UniProt Q13148 258-414); experiment: direct ELISA, His-tagged TDP-43 fragments coated at 6.6 ug/ml, OD 450
T4 construct: Amino terminal His-tagged fragment, E. coli, solubilized in 8 M urea; also called Glycine-rich domain
Description: (§4) Non-specific binding sites were blocked for 1 hr. at room temperature with PBST containing 2% BSA (Sigma, Buchs, Switzerland). Antibodies were incubated 1 hr. at room temperature. Binding was determined using either a donkey anti-human IgGγ-specific antibody conjugated with HRP (Jackson ImmunoResearch, USA) or a goat-anti mouse IgG (H+L)-specific secondary antibody conjugated with HRP (Jackson ImmunoResearch, USA)., followed by measurement of HRP activity in a standard colorimetric assay.

[6] = biological target: T5, His-huTDP-43 domain I (amino acid residues 2-106) (human); experiment: as above
T5 construct: Amino terminal His-tagged fragment, E. coli; also called N-terminal domain
T5 chain: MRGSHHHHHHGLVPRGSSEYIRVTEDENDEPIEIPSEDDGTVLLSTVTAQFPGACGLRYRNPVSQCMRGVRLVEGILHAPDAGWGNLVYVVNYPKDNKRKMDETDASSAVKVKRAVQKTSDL
Description: as §4

[7] = biological target: T6, His-huTDP-43 domain II (amino acid residues 99-204) (human); experiment: as above
T6 construct: Amino terminal His-tagged fragment, E. coli
T6 chain: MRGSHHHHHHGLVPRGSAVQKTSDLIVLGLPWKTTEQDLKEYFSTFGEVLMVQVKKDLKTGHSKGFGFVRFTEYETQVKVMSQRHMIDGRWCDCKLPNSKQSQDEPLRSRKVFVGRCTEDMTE
Description: as §4

[8] = biological target: T7, His-huTDP-43 domain III (amino acid residues 183-273) (human); experiment: Western blot
T7 construct: Amino terminal His-tagged fragment, E. coli
T7 chain: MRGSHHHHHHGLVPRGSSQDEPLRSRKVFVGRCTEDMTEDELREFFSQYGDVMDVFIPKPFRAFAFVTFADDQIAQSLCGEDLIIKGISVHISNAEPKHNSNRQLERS
Description: (§5) Non-specific binding sites were blocked for 1 hr. at room temperature with PBST containing 2% BSA (Sigma, Buchs, Switzerland). Blots were incubated overnight with primary antibodies (10 nM) followed by either a donkey anti-human IgGγ-specific secondary antibody conjugated with HRP (Jackson ImmunoResearch, USA) or a goat-anti mouse IgG (H+L)-specific secondary antibody conjugated with HRP (Jackson ImmunoResearch, USA). Blots were developed using ECL and ImageQuant 350 detection (GE Healthcare, Otelfingen, Switzerland).
(§6) Commercially available TDP-43 specific antibody TARDBP (M01), clone 2E2-D3 (Abnova, Taiwan) was used as positive control for human TDP-43 detection whereas, an anti-human IgG Fcγ-specific antibody was used as a negative control. Binding of the human-derived antibodies to specific TDP-43 domains was determined by Western Blot analysis.

[9] = biological target: T5, His-huTDP-43 domain I (amino acid …); experiment: Western blot, 300 ng recombinant protein per lane, primary antibody 10 nM
Description: as §5

[10] = biological target: T6, His-huTDP-43 domain II (amino acid …); experiment: as above
Description: as §5

[11] = biological target: T7, His-huTDP-43 domain III (amino acid …); experiment: as above
Description: as §5

[12] = biological target: T8, BSA (bovine, UniProt P02769); experiment: direct ELISA, BSA coated at 5 ug/ml as control, OD 450
T8 construct: control coating in the EC50 ELISA; also called bovine serum albumin (Sigma, Buchs, Switzerland)
Description: as §1, with “To determine the” for “The”, “to evaluate target-specificity,” for “their target target-specificity was determined substantially as described in Example 2 above. Briefly,”
The half maximal effective concentration (EC₅₀) of the human-derived TDP-43-specific antibodies for human TDP-43 and their target target-specificity was determined substantially as described in Example 2 above. […]

[13] = biological target: T7, His-huTDP-43 domain III (amino acid …); experiment: direct ELISA, His-tagged TDP-43 fragments coated at 6.6 ug/ml, OD 450
Description: as §4

[14] = biological target: T6, His-huTDP-43 domain II (amino acid …); experiment: Western blot
Description: as §5, §6

[15] = biological target: T5, His-huTDP-43 domain I (amino acid …); experiment: direct ELISA, TDP-43 fragments coated at 6.6 ug/ml, OD 450
Description: as §4

[16] = biological target: T6, His-huTDP-43 domain II (amino acid …); experiment: as above
Description: as §4

[17] = biological target: T7, His-huTDP-43 domain III (amino acid …); experiment: as above
Description: as §4

T3 sequence (Q13148 220-414): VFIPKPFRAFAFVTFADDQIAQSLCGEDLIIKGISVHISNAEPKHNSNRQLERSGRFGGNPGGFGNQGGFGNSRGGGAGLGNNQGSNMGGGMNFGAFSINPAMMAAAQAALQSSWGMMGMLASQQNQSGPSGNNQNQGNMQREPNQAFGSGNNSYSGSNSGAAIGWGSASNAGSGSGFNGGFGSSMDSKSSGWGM
T4 sequence (Q13148 other isoform, or with tags, fused parts or gaps limits assumed): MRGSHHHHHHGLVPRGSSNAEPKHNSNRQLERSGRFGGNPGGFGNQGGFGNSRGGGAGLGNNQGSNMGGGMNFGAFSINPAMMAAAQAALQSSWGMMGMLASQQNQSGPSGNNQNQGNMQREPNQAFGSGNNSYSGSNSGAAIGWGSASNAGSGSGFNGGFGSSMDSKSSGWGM
T2 sequence (Q13148 whole entry): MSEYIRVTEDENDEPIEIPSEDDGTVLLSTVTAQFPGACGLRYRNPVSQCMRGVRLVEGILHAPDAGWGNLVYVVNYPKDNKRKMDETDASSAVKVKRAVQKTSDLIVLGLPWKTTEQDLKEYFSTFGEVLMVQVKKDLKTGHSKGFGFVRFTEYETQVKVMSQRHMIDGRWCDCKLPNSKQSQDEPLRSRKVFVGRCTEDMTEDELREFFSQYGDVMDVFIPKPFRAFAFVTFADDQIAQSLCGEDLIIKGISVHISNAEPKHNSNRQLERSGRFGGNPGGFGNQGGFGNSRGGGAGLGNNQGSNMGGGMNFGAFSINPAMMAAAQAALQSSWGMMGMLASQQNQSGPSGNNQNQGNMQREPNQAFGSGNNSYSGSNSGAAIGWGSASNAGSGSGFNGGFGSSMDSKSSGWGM
T8 sequence (P02769 25-607 limits assumed): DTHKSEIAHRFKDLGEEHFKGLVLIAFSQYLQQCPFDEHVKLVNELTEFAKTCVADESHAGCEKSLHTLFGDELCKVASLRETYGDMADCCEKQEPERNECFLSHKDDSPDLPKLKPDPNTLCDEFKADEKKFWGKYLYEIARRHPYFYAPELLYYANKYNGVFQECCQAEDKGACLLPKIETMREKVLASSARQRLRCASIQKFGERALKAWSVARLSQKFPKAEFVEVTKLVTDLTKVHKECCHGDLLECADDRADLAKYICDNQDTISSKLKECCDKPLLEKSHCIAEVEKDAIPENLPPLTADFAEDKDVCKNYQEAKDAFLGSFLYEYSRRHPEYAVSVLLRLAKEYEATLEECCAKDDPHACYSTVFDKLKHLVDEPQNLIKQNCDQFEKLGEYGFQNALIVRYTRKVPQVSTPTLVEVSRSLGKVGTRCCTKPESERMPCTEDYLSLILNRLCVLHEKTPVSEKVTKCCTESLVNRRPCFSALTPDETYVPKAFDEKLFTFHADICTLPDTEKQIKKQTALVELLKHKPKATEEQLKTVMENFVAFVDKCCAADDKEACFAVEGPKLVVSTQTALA

Binder	EC50 [1] [nM]	EC50 [2] [nM]	binding result [3]	EC50 [4] [nM]	binding result [5]	binding result [6]	binding result [7]	binding result [8]	binding result [9]	binding result [10]	binding result [11]	binding result [12]	EC50 [3] [nM]	binding result [13]	binding result [14]	binding result [15]	binding result [16]	binding result [17]
B1	0.18	1.1	no binding	0.18	no binding	no binding	no binding	binds										
B2	4.1	4.4		4.1					no binding (tested: 10 nM)	no binding (tested: 10 nM)	no binding (tested: 10 nM)	no binding (tested: about 4x10^5 pM)	0.33					
B3	0.24	3.6	no binding	0.24	no binding	no binding								no binding	binds			
B4		> 125		2.8									33.5			no binding	no binding	no binding
B5	1.4 to 2.8	> 90	no binding	1.4	no binding	no binding	no binding	binds										
